Patent US9378557B2, “Microfluidic device for assessing object/test material interactions” (Dublin City University, priority 2008, dated 2016)

Tested on: platelets
Assay: Shear-activated platelet translocation on von Willebrand Factor in the microfluidic device (blood perfusion assay, platelet tracking software)
Assay type: cell-based
Conditions: whole blood treated with ReoPro 20 μg/ml for 20 minutes; vWF-coated test area; arterial shear rate 1500 s-1; compared to normal untreated platelets (FIG. 13)
Text: The microfluidic device was used to measure the shear-activated response of platelets in the presence of von Willebrand Factor (vWF). In particular, the effect of platelet specific GPIIb-IIIa antagonist (abciximab, ReoPro) on platelet function was examined. Abciximab (trade name ReoPro, distributed by Eli Lilly) is a platelet aggregation inhibitor used mainly during and after coronary artery procedures to prevent platelets from sticking together, by platelet GPIIb-IIIa-mediated aggregation, and subsequent thrombus formation.
Blood Draw: Blood was obtained from volunteers by venopuncture using a 19-g needle attached to a polypropylene syringe containing anticoagulant solution. […]
Matrix deposition on microfluidic device: The components of the flow cells were assembled using a jig to ensure patterned psa layers are aligned. […] Using silastic laboratory tubing, von Willebrand Factor solution (˜100 ug/ml protein solution in Phosphate Buffered Saline solution (PBS) was injected to fill the flow cell. The platform was then left to sit for 2 hours to immobilise the vWF on the glass base. (The flow cells were blocked with 1% BSA solution (in PBS) for 1 hour at room temperature). Deposition of von Willebrand Factor was by coating through adsorption. The platforms were rinsed with PBS solution and were then ready for perfusion assays. […]

B1: abciximab (antibody, chains of the INN, looked up, V domains shown)
VH: EVQLQQSGTVLARPGASVKMSCEASGYTFTNYWMHWVKQRPGQGLEWIGAIYPGNSDTSYIQKFKGKAKLTAVTSTTSVYMELSSLTNEDSAVYYCTLYDGYYVFAYWGQGTLVTVSA
VL: EIVLTQSPVTLSVTPGDSVSLSCRASRDISNNLHWFQQTSHESPRLLIKYASQSMSGIPSRFSGSGSGTDFTLSINSVETEDFGMYFCQQTNSWPYTFGGGTKLEIK
modifications: Fab
notes: platelet specific GPIIb-IIIa antagonist
Q: With B1 as the molecule, how does the average velocity read?
A: Its average velocity is “increased”.

Q: What about the escape percentage of the same molecule?
A: Its escape percentage is “increased”.
